Assay [1] has as its target T1, recombinant human CD4 (catalogue number: 514-CD/CF, manufactured by R&D Systems) (human, UniProt P01730 26-390).
T1 construct: Bought protein (R&D Systems); also called recombinant CD4
In words: SPR, Biacore T100; antibody captured on anti-human IgG chip, recombinant human CD4 flowed; 1:1 binding model. On the procedure: (§1) In order to kinetically analyze the binding activity of anti-CD4 chimeric antibodies KM4045 to KM4049, 6G5-1 and 6G5-P to recombinant human CD4, the binding activity was measured by surface plasmon resonance method (SPR). All of the following manipulations were carried out using a Biacore T100 (manufactured by GE Healthcare Bio-Sciences). The anti-human IgG antibody was immobilized on a CM5 sensor chip (manufactured by GE Healthcare Bio-Sciences) by an amine coupling method using a Human Antibody Capture Kit (manufactured by GE Healthcare Bio-Sciences) in accordance with the protocols attached thereto. An assay sample (anti-CD4 chimeric antibodies KM4045 to KM4049) was added to be captured on the anti-human IgG antibody-immobilized chip to give 100 RU (resonance unit). Thereafter, the recombinant human CD4 (manufactured by R&D) diluted from 2500 ng/mL in five steps was allowed to run at a flow rate of 30 μL/min onto the chip, and the sensorgram corresponding to each concentration was obtained. The analysis was carried out in the 1:1 binding model using an analysis software attached to the apparatus, Biacore T100 Evaluation software (manufactured by Biacore), thereby calculating an association rate constant ka and a dissociation rate constant kd of respective antibodies for human CD4.
As a result, an association rate constant ka, a dissociation rate constant kd, and a dissociation constant KD (kd/ka) of individual antibodies thus obtained are given in Table 5.
In general terms: SPR reads the build-up and loss of mass on a sensor chip optically.

In assay [2] the target is T1, recombinant human CD4 (catalogue …). The description is as above. How it is done: as §1
The measurement of a binding activity was carried out according to the method described in Example 7(2). The association rate constant ka, the dissociation rate constant kd and the dissociation constant KD (kd/ka) of respective antibodies thus obtained are shown in Table 6.
The source holds these as a separate data set.

Assay [3] shares this target. In words: SPR, Biacore T100; antibody captured on anti-human IgG chip, recombinant human CD4 flowed; 1:1 binding model; kd beyond the maker's measurable limit. How it is done: as §1, with “CD4. […]” for “CD4.”
Assay [4] has the same target. In words: SPR, Biacore T100; antibody captured on anti-human IgG chip, recombinant human CD4 flowed; 1:1 binding model; value beyond the maker's measurable limit (1 × 10^-5). On the procedure:
as §1, with “CD4. […]” for “CD4.”

Assay [5] shares this target. In words: Biacore T100.
Assay [6] has the same target. In words: SPR, Biacore T100; summary sentence to Table 6.

The results in this text go back to patent publication US20100310573A1 (Kyowa Kirin, published 2010).

Numbering of substitutions follows the chain as printed. Like-named read-outs stand apart in the source and are kept apart here. Where only a bound is given, the exact number is not on record here.

B1: anti-CD4 chimeric antibody KM4045 (antibody, V domains shown)
VH: EVQLVESGGGLVQPGRSMKLSCAASGFTFSNYGMAWVRQAPTKGLEWVATISYDGSITYYRDSVKGRFTISRDHAKSTLYLQMNSLRSEDTATYYCTREEQYSSWYFDFWGPGIMVTVSS
VL: DIVLTQSPALAVSLGQRATISCRASQSVSISSHDLMQWYQQKPGQQPKLLIYDAFNLASGIPVRFSGSGSGTDFTLTIDPVQADDIATYYCQQSKDDPYTFGAGTKLELK
notes: Variable regions of rat KM4065 joined to a '113F type' heavy chain constant region and a human kappa constant region; In the 113F type, part of the human IgG1 Fc is substituted with human IgG3 Fc (US2007/0148165); Expressed in FUT8 knockout CHO cells (0% fucose)
One may read the kon as the rate constant with which the complex forms. The Kd is the concentration at which binding is half-saturated. In general, koff refers to the first-order rate constant of dissociation. Take B1: the kon came out at 360000 M⁻¹ s⁻¹ in assay [1] and 541000 M⁻¹ s⁻¹ in assay [2]. In addition, the dissociation constant Kd is < 18.4 pM in assay [2] and ≤ 0.0824 pM in assay [3]. The koff in assay [2] and in assay [4] was < 1e-05 s⁻¹ each time.

B2: anti-CD4 humanized antibody HV4LV6 (antibody, V domains shown)
VH: B1 VH with K19R, T42G, H74N, A75S, S77N, S88A, P112Q, M115L
VL: DIQLTQSPSSLSVSLGDRATITCRASQSVSISSHDLMQWYQQKPGKQPKLLIYDAFNLASGIPSRFSGSGSGTDFTLTISSVQPEDFATYYCQQSKDDPYTFGQGTKLEIK
notes: Expressed from the humanized antibody expression vector pKANTEX93
Take B2: the “binding activity relative to the anti-CD4 chimeric antibody KM4045” value in assay [5] is 0.5 fold of KM4045. The Kd in assay [6] was ≤ 100 pM. In assay [2], the Kd was < 24.8 pM, the off-rate (koff) is < 1e-05 s⁻¹ and the kon worked out at 403000 M⁻¹ s⁻¹.
